From publication PMC8266642

Molecular target: T1, StrepHP1021 (HP1021) (Helicobacter pylori 26695) (UniProt O25665)
T1 sequence: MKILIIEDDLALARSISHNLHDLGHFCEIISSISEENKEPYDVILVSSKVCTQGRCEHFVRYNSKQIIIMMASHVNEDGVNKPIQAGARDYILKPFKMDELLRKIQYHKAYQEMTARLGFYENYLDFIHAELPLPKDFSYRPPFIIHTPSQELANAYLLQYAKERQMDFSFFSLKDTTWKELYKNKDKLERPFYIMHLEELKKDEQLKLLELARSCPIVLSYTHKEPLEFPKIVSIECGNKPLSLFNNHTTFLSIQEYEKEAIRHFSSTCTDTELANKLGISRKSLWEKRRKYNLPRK
Experiment: EMSA
Conditions: EMSA: 50 mM Tris-HCl pH 8.0, 100 mM NaCl, 0.2% Triton X-100, 5 nM DNA, 37 C 20 min; 4% PAGE in 0.5x TBE or TB at 20-25 C. SPR: 50 mM Tris-HCl pH 8.0, 100 mM …

How did the binding turn out when “ATGATATTTATATGATATTTTTGGGTAATTTAAGATGAATATCGGTAGCGTTTTGAATAAATTTGTTACTACTTTTCACTTTATTACGCCAAATTTTCCCTTATTACAAACAACTTTGAAATAAATGATTTCCATTTAAAAATCAGCCTTATACTTCTAATAGGTTGCCTTGAGCAACACTTTAATACAAGGAGTCTAAATGAAAGACGCAAATTCGAAGCTATTCTTACTCC (double strand) [phyuA]” was run?
The binding was “binds”.

With “GGAGTAAGAATAGCTTCGAATCTCTATTTTGAAAACCCCTATTTCAGGCTTTTGAGTTTTTTAGGCTCTAGTTTTATCCACCCCTTTGGATTTGATTGGTTAGTCCCAGATAGCTTTTTTTCTTATAGCGTGTTTAGAGTGGATAAATTATCGCTAGGGCTTGTTTTTTTGGCTTGCATTTTTTTGAGCACTAAACCATTGAAAAAATATAG (double strand) [FAM-HP0180 fragment]” as the sequence, how does the binding read?
Its binding is “binds more weakly”.
